Test results: the supplement of paper PMC7125110
± gives the standard error. Variants at the floor of the assay were thinned out.

B1: glmS ribozyme (parent)
chain: AUAAAAGCGCCAGAACUACAGAAAUGUAGUUGACGAGGAGGAGGUUUAUCGAAUUUUCGGCGGAUGCCUCCAAA

Experiments:
Settings in all cases: with glucosamine-6-phosphate
glucosamine-6-phosphate [1] = variants of: B1; assay: self-cleavage kobs at 640 uM GlcN6P; higher = faster cleavage; RNA array
How it was run: (§1)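 Barcoded ribozyme variants on sequenced MiSeq chips were transcribed in situ by E. coli RNA polymerase and followed at 37 °C through a hybridised Cy3 probe. Glucosamine-6-phosphate at 40 μM to 10 mM in HEPES/KCl/Mg(OAc)2 buffer was flowed in, and tiles were imaged over ~14 h. Signals were normalised to baseline and to non-cleaving reference variants, and per-tile medians were fit to one- or two-exponential decays to give kobs. Weighted Michaelis–Menten fits across concentrations gave kcat and KM.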

glucosamine-6-phosphate [2] = variants of: B1; assay: self-cleavage kobs at 2500 uM GlcN6P; higher = faster cleavage; RNA array
How it was run: as §1

glucosamine-6-phosphate [3] = variants of: B1; assay: self-cleavage kobs at 10000 uM GlcN6P; higher = faster cleavage; RNA array
How it was run: as §1

Variant	self-cleavage kobs at 640 uM GlcN6P (glucosamine-6-phosphate [1]) [s⁻¹]	self-cleavage kobs at 2500 uM GlcN6P (glucosamine-6-phosphate [2]) [s⁻¹]	self-cleavage kobs at 10000 uM GlcN6P (glucosamine-6-phosphate [3]) [s⁻¹]
G35A U46C G66A	< 1e-05		
U46A C58G	< 1e-05		
A15G U31C A33C A52U U54C	< 1e-05	< 1e-05	
G40C G43U U55C	< 1e-05	< 1e-05	
C8U A15U A48C A52C C70U	< 1e-05		
C8A U55G A64U	< 1e-05	< 1e-05	
A6U A12U G37U	< 1e-05		
G59A G60U C67U	< 1e-05		
G7C A36U C67G	< 1e-05	< 1e-05	< 1e-05
G29A U30A U31C	0.000152 ± 2.2e-05	0.000309 ± 6.5e-05	
G38A G40U G43A A52C	< 1e-05		
A36C G41U A64C	< 1e-05	< 1e-05	
G13U C16U A33C C68U	< 1e-05		
C34A U54A A64C	< 1e-05	< 1e-05	
G35U G43U G60A	< 1e-05	< 1e-05	
G29U A42G U45C	6.45e-05 ± 2.4e-05	0.000107 ± 3.3e-05	
G29C A33U G35C A52U	< 1e-05	< 1e-05	
A14U A15G G37A	0.000119 ± 2.8e-05	0.000224 ± 4.9e-05	
A33G A36C U54C	< 1e-05	< 1e-05	< 1e-05
U46A U55C	0.00095 ± 0.00025	0.00269 ± 0.00043	0.0029 ± 0.00062
A6G A14C G38U	< 1e-05		< 1e-05
C8U G37U C71G	0.000584 ± 0.00027		

Variant	self-cleavage kobs at 640 uM GlcN6P (glucosamine-6-phosphate [1]) [s⁻¹]	self-cleavage kobs at 2500 uM GlcN6P (glucosamine-6-phosphate [2]) [s⁻¹]	self-cleavage kobs at 10000 uM GlcN6P (glucosamine-6-phosphate [3]) [s⁻¹]
U30G A33C G40C U54A A64C	< 1e-05	< 1e-05	
U31G G35C G51U	< 1e-05		
A42C C67U C71G	< 1e-05		
C11U G41A G60U G63U C70U	< 1e-05	< 1e-05	
C61G A64G C71G	0.000141 ± 3.7e-05		
G40U C50A G51A	< 1e-05		
A39U G41U U47A A52C	< 1e-05	< 1e-05	
A6G G63C C67A	< 1e-05		
G29A U45C U46G A53C C67G U69G	< 1e-05	< 1e-05	
A33G A52G U65G	< 1e-05	< 1e-05	
G51U G63A C68G	9.2e-05 ± 3e-05		
C11U G41C U54G G59C	< 1e-05		
G9U G29C G41A	< 1e-05	< 1e-05	< 1e-05
U30G G40A U56G	6.26e-05 ± 2e-05	0.00032 ± 7.3e-05	
G9C C10G A14G G41U A64C	< 1e-05	< 1e-05	
U30G G37A	9.32e-05 ± 2.2e-05	0.000172 ± 4.2e-05	0.000734 ± 0.00011
C10A A39U A52G	< 1e-05	< 1e-05	< 1e-05
U30G U31G U49G U69G	7.71e-05 ± 2.2e-05	6.45e-05 ± 2.7e-05	
A33G G51A U55C C68A	< 1e-05		
C8U A39U G59C	< 1e-05		
U30A G51U A53C G59A G60C C70G	< 1e-05		
A12G U45G A52U C61G	< 1e-05		

Variant	self-cleavage kobs at 640 uM GlcN6P (glucosamine-6-phosphate [1]) [s⁻¹]	self-cleavage kobs at 2500 uM GlcN6P (glucosamine-6-phosphate [2]) [s⁻¹]	self-cleavage kobs at 10000 uM GlcN6P (glucosamine-6-phosphate [3]) [s⁻¹]
A15U U45C C50G U69G	< 1e-05	< 1e-05	
A12G U54A	0.000125 ± 2.3e-05	0.000221 ± 4.5e-05	0.000878 ± 0.00013
G9A G60A C68G	< 1e-05		
C19A U30A	0.000125 ± 2.9e-05	0.000235 ± 4.3e-05	
C10G C11A U31C G35C C70G	0.00013 ± 6.3e-05		
G38U C50G A64G	6.44e-05 ± 2.9e-05	3.85e-05 ± 1.7e-05	
A36U U55C G60U	< 1e-05		
G32C G35U A52G	< 1e-05	< 1e-05	
C34G U57A	< 1e-05		< 1e-05
C8U A12C U49A	< 1e-05		
G29C A39G U46A U65G	0.000174 ± 6.2e-05	0.000622 ± 0.00019	
G7C C10A G13A G37A U45A	< 1e-05	< 1e-05	
C8A G32A G66U	< 1e-05		
U47C U49G C50U	< 1e-05	< 1e-05	
A15U A52U G66C C71U	< 1e-05		
A15G U49G U65G C70A	0.00349 ± 0.0014		
A15U A42C C67U C70G	< 1e-05	< 1e-05	
A33U G35C G63U	< 1e-05	< 1e-05	
G7A A15G U30C A48G U57A	< 1e-05	< 1e-05	
A12C U30A G35A	< 1e-05	< 1e-05	< 1e-05
U31C A48G G60A	< 1e-05	< 1e-05	
A6U C34G U47G C67U C68A	0.000407 ± 0.00013	8.02e-05 ± 2.6e-05	

Variant	self-cleavage kobs at 640 uM GlcN6P (glucosamine-6-phosphate [1]) [s⁻¹]	self-cleavage kobs at 2500 uM GlcN6P (glucosamine-6-phosphate [2]) [s⁻¹]	self-cleavage kobs at 10000 uM GlcN6P (glucosamine-6-phosphate [3]) [s⁻¹]
C8G G32U G40A G44C C58U	< 1e-05	< 1e-05	
A14G G35U G37C U47C	< 1e-05		
G9A A42C G44A	< 1e-05	< 1e-05	
C34U A64U G66C	< 1e-05		
A12C U47C G60U	< 1e-05		
G7U C50U U65A U69C C71U	6.46e-05 ± 2.1e-05		
C16A U56G U65G	5.32e-05 ± 2.4e-05	0.000165 ± 5.6e-05	
U30G U55G C68U	0.000548 ± 0.00014	7.82e-05 ± 2.1e-05	
G40U U47C A53C U54A	7.34e-05 ± 2.8e-05	0.000202 ± 3.7e-05	
A14U A15G A64C	< 1e-05		
G9A U47G U49G	< 1e-05		
G9C U30A U49C U56G	< 1e-05		
A53U U55C U65A	0.00055 ± 9.7e-05	0.000947 ± 0.00018	0.00137 ± 0.00021
G38A C61A G62C	< 1e-05	< 1e-05	< 1e-05
G43U A52C G66C C68G	< 1e-05	< 1e-05	
A12U G29A U31C	0.000169 ± 4.1e-05	0.00041 ± 0.00015	0.000943 ± 0.00018
C8G C10U A48U	< 1e-05	< 1e-05	
C10U G38U U57G C61G G66U	0.000307 ± 9.3e-05		
C11A A53G G63A	< 1e-05		
G7A A39U U49A	< 1e-05		
G7A A52G U57A	< 1e-05	< 1e-05	
A12U U65C C70U	0.000322 ± 8.6e-05		

Variant	self-cleavage kobs at 640 uM GlcN6P (glucosamine-6-phosphate [1]) [s⁻¹]	self-cleavage kobs at 2500 uM GlcN6P (glucosamine-6-phosphate [2]) [s⁻¹]	self-cleavage kobs at 10000 uM GlcN6P (glucosamine-6-phosphate [3]) [s⁻¹]
U47A G60C U69C	0.00785 ± 0.0036		
U31G G41U U47G	7.13e-05 ± 2e-05	0.000232 ± 5.7e-05	
A39C G40U G44A U55C U65G	< 1e-05	< 1e-05	
G32U A42G G66U C68U	< 1e-05		
C34A G38U U54A	< 1e-05	< 1e-05	
U31G G41A U46G	7.29e-05 ± 2.3e-05	0.00021 ± 5.3e-05	
A48G A52C U57G	< 1e-05		
G41U U46G A48C U49C	< 1e-05		
U56C A64C	< 1e-05		
A14U A15C A33U U49C C50G U69A	0.0012 ± 0.00039	0.000218 ± 9.1e-05	
A6G C11U G51U	< 1e-05		
G13U A15G G51C	< 1e-05	< 1e-05	
G7U G9A A14U U55C	< 1e-05		
C16G G44U G51U C61U	< 1e-05	< 1e-05	
G41U C50A U65A	< 1e-05		
G13U G37C U56C C67A C71U	< 1e-05		
G13C A33G G40U U49G G63A	< 1e-05		
C8A C16U G38A	< 1e-05		< 1e-05
G7C A39C G40C G44U	< 1e-05		
A42C U49C C58U	< 1e-05	< 1e-05	
C8U C34G A39G G44U	< 1e-05		
C11U G13U A14G G38C	< 1e-05		

Variant	self-cleavage kobs at 640 uM GlcN6P (glucosamine-6-phosphate [1]) [s⁻¹]	self-cleavage kobs at 2500 uM GlcN6P (glucosamine-6-phosphate [2]) [s⁻¹]	self-cleavage kobs at 10000 uM GlcN6P (glucosamine-6-phosphate [3]) [s⁻¹]
G29U G32U G44C U65C	< 1e-05		
C16G U30C C50U	< 1e-05		
A12G G37A A48G G63C	< 1e-05		
G43C U69G	< 1e-05		< 1e-05
A33G G38U U65A C70G	7.69e-05 ± 2.1e-05		
G7U A39C A42C	< 1e-05	< 1e-05	
G9A C10A G13C G29C	< 1e-05	< 1e-05	
A52G U56G	0.000309 ± 5.9e-05	0.000536 ± 0.00011	0.0014 ± 0.00025
U56C G66C	6.26e-05 ± 2.2e-05	8.66e-05 ± 2.4e-05	
C8A U31G C61A	< 1e-05		< 1e-05
G32U G38C C68U	< 1e-05		
G29U C34U	< 1e-05		
G9U G29A U46A G51U C67U	< 1e-05	< 1e-05	
G38A G41C U54G C61A	< 1e-05	< 1e-05	
A14C A42G G43A U69C C70U	< 1e-05		
G41A U65G	< 1e-05		
A6U U31G C67G	< 1e-05		
A6U G37C G38A C71A	< 1e-05		
G9C A15C G32U G40C G66C	< 1e-05		
A33C G41U U47G U65C C68A	< 1e-05		
G29A A33G U69A	5.13e-05 ± 2.3e-05	4.9e-05 ± 1.9e-05	
